Results published in patent publication US20110039773A1.

Tests used:
Test in all cases: cell-based or functional assay
BMP-6 (human) = BMP-6 (human) (UniProt P22004)
BMP-7 (human) = BMP-7 (human) (UniProt P18075)
[1] = molecular target: BMP-7 R48Q/E60K/Y65N (human) (UniProt P18075)
BMP-7 Y78H (human) = BMP-7 Y78H (human) (UniProt P18075)
BMP-7 E60K (human) = BMP-7 E60K (human) (UniProt P18075)
[2] = molecular target: Rev K60E (revertant of 80-1) (human) (UniProt P18075)

Sequence of UniProt P22004 (P22004 375-513): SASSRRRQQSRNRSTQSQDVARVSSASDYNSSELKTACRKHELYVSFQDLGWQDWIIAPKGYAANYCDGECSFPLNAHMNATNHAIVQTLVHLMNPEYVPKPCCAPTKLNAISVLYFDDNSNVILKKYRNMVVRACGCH

BMP-induced ID-1 gene expression by QPCR in hMSCs, BMP 50 ng/ml, Noggin 1.5 ug/ml, level against background (times background) (BMP-6 (human)): 2
maximum percent inhibition by Noggin of BMP-induced luciferase activity, A549-BRE cells, BMP 150 ng/ml (BMP-6 (human)): 25%
relative activity at 1000 ng/ml of noggin, reporter gene assay, conditioned media (BMP-6 (human)): 73%
relative activity at 1000 ng/ml of noggin, reporter gene assay, conditioned media (BMP-7 (human)): 15%
relative activity at 1000 ng/ml of noggin, reporter gene assay, conditioned media [1]: 63%
relative activity at 1000 ng/ml of noggin, reporter gene assay, conditioned media (BMP-7 Y78H (human)): 31%
relative activity at 1000 ng/ml of noggin, reporter gene assay, conditioned media (BMP-7 E60K (human)): 53%
relative activity in the presence of noggin at 100 ng/ml (N1), reporter gene assay [2]: 86%
relative activity in the presence of noggin at 500 ng/ml (N2), reporter gene assay [2]: 51%
relative activity in the presence of noggin at 1000 ng/ml (N3), reporter gene assay [2]: 32%
B1: Noggin (protein, UniProt Q13253 28-232, looked up)
chain: QHYLHIRPAPSDNLPLVDLIEHPDPIFDPKEKDLNETLLRSLLGGHYDPGFMATSPPEDRPGGGGGAAGGAEDLAELDQLLRQRPSGAMPSEIKGLEFSEGLAQGKKQRLSKKLRRKLQMWLWSQTFCPVLYAWNDLGSRFWPRYVKVGSCFSKRSCSVPEGMVCKPSKSVHLTVLRWRCQRRGGQRCGWIPIQYPIISECKCSC
